The source of these data is US20250026782A1, “ACTIVATING APPENDAGES TO INDUCE POLYPHARMACOLOGY IN PEPTIDE HORMONE ANALOGUES, INCLUDING DUAL GLP-1R / GIP AGONISM” (Wisconsin Alumni Research Foundation, priority 2023, published 2025).

In one data set the target is GLP-1 receptor (Homo sapiens, UniProt P43220). In words: cAMP production assay, activation of GLP-1R (GloSensor HEK293 cells). The class given is cell-based. The note with it: result in words, EC50 values only in figures.
In another data set the target is T1, GIP receptor (Homo sapiens, UniProt P48546).
T1 sequence (P48546 22-466): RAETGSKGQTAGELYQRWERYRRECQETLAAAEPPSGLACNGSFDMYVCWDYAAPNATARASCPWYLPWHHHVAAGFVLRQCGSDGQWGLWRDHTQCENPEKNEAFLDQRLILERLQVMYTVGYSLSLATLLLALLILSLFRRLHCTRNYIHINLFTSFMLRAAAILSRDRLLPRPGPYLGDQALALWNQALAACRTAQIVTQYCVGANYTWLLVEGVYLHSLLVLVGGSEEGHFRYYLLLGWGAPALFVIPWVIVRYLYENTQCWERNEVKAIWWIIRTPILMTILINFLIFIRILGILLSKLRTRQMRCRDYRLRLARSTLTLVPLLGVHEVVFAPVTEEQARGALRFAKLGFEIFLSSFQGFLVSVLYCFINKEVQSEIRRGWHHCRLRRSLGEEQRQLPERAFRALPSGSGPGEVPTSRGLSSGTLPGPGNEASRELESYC
Nature of the data set: cAMP production assay, activation of GIPR (HEK 293 GS cells stably expressing GIPR). The note with it: result in words, EC50 values only in figures. In general terms: Cyclic AMP is a second messenger, typically raised through Gs and lowered through Gi signalling.

The conditions of data set [1]: degraded by peptidases; cited from earlier work.

“Also recorded” adds a separate entry of the source. No end group written: not given here. B4 T2‑OMe = not defined here

Sequence of GLP-1 receptor (P43220 24-463): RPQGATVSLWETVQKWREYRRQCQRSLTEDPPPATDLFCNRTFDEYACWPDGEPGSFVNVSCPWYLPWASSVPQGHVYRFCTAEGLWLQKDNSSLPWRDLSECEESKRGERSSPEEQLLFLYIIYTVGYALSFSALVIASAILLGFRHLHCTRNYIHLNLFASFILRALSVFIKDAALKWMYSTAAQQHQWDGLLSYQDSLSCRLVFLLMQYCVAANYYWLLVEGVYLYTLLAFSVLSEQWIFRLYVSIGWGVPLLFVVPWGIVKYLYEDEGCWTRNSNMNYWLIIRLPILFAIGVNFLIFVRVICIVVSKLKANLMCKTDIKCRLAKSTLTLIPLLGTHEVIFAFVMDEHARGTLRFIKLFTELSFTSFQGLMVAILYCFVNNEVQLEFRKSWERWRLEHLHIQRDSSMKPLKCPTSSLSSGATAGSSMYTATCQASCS

For “GIP (1-30): amidated truncated form of glucose-dependent insulinotropic polypeptide, YAEGTFISDY SIAMDKIHQQ DEVNWLLAQK-NH2”, in the data set with GLP-1 receptor, the “activation of the GLP-1 receptor (agonist activity / potency)” value was “does not activate the GLP-1 receptor”.
In the case of “GLP-1 16 B4 T2-OMe: GLP-1 with position 16 B4 T2 side chain, OMe variant of bisphenol (HAEGTFTSDK(B4 T2‑OMe)SSYLEGQAAKEFIAWLVKGRG; reading uncertain)”, the “activation of the GIP receptor (agonist activity / potency)” value with GIP receptor is “greater activity than other tested appendages”.
Turning to tirzepatide, the “activation of the GIP receptor (agonist activity / potency)” value is “activation of the GIP receptor” in the data set with GIP receptor and “dual GLP-1R/GIPR” with GIP receptor (listed as TZP). In addition, the “activation of the GLP-1 receptor (agonist activity / potency)” value is “activation of the GLP-1 receptor” with GLP-1 receptor and “dual GLP-1R/GIPR” in the data set with GLP-1 receptor (listed as TZP).
Regarding “GLP-1: glucagon-like peptide-1, native hormone, HAEGTFTSDVSSYLEGQAAKEFIAWLVKGRG”, the “activation of the GIP receptor (agonist activity / potency)” value with GIP receptor was “does not activate the GIP receptor; also recorded: no effect on the GIP receptor; also recorded: does not activate the GIPR”; with GIP receptor (listed as GLP-1*), “acts as an agonist; also recorded: agonists of both GLP-1 receptor and GIP receptor; also recorded: greater activity than other tested appendages”. For the same substance, in data set [1], the half-life in vivo is below 2 min.
